For assay [1], the target named is T1, PD1-Fc recombinant protein (human, UniProt Q15116 25-167).
T1 construct: range 25-167; also called PD1-Fc antigen; PD1-Fc protein; not shown: human IgG1 Fc tag at the C-terminus
The assay is described as follows: SPR, PD1-Fc immobilized on CM5 chip, antibody as mobile phase.

Assay [2] deals with T1, PD1-Fc recombinant protein. The assay is described as follows: phage ELISA, wells coated with PD1-Fc (Fc and blocked wells as controls).

Numbering of substitutions follows the chain as printed. In names and notes the source's numbering stands.

T1 sequence (Q15116 25-167 limits assumed): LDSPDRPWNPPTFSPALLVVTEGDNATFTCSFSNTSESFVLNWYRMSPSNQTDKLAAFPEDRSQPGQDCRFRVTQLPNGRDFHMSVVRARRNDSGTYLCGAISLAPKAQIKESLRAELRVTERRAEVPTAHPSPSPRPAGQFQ

B1: 2-F3-(G4S)3-2-B1 bivalent PD1 antibody (with human IgG1 Fc) (Fc fusion)
chain: QVKLEESGGGLVQPGGSLTVSCVASGFSLDAYTIGWFRQAPGKEREGIICISRGGRITNYAHSVKDRFTISRDGAKNMVYLHMNSLKPEDTGAYYCAAVQRDPFICSGYTQSYDLWGQGTQVTVSSGGGGSGGGGSGGGGSQVQLVESGGGLVQPGGSLTVSCAASGFSLDAYTIGWFRQAPGKEREGIICISRGGRITNYAHSVKDRFTISRDGAKNTVYLHMNSLKPEDTGAYYCAAVQRDPFICSGYTQSYDHWGQGTQVTVSS
notes: Two VHH joined by (G4S)3, subcloned in tandem with human IgG1 Fc; purified on Protein A; not shown: human IgG1 Fc, in tandem C-terminal (vector pcDNA3.4-hIgG1-Fc2)
For the molecule B1, in assay [1], the dissociation constant (Kd) was 0.282 nM, the koff stood at 0.000118 s⁻¹ and the kon came to 418000 M⁻¹ s⁻¹.

B2: 2-C10-(G4S)3-2-B1 bivalent PD1 antibody (with human IgG1 Fc) (Fc fusion)
chain: QVQLVESGGGLVQPGGSLRLSCAASGFSLDAYTIGWFRQAPGQEREGISCISRSGRITNYARSAKDRFTISRDNAKNTVYLEMKNLRPEDTGAYYCAAVEMDPFLCSGYTQSYDQWGQGTQVTVSSGGGGSGGGGSGGGGSQVQLVESGGGLVQPGGSLTVSCAASGFSLDAYTIGWFRQAPGKEREGIICISRGGRITNYAHSVKDRFTISRDGAKNTVYLHMNSLKPEDTGAYYCAAVQRDPFICSGYTQSYDHWGQGTQVTVSS
notes: as for B1
B2: in assay [1], the dissociation constant Kd amounted to 0.0211 nM, the koff is 3.29e-05 s⁻¹ and the kon turned out to be 1.56e+06 M⁻¹ s⁻¹.

B3: 2-C10-(G4S)3-2-F3 bivalent PD1 antibody (with human IgG1 Fc) (Fc fusion)
chain: B2 chain with Q144K, V146E, A164V, T219M, H256L
notes: as for B1
Regarding B3, in assay [1], the dissociation constant Kd was 0.28 nM, the dissociation rate constant (koff) came out at 8.92e-05 s⁻¹ and the on-rate constant (kon) amounted to 318000 M⁻¹ s⁻¹.

B4: 2-C10 VHH displayed on phage (clone from cross-panning) (VHH)
VHH: QVQLVESGGGLVQPGGSLRLSCAASGFSLDAYTIGWFRQAPGQEREGISCISRSGRITNYARSAKDRFTISRDNAKNTVYLEMKNLRPEDTGAYYCAAVEMDPFLCSGYTQSYDQWGQGTQVTVSS
notes: Tested as a phage monoclone (pComF display vector, M13) in phage ELISA; the phage fusion partner is not described
For B4, in assay [2], the binding result is listed as “binds”.

The values above are taken from patent US20260242474A1 (PERSONGEN BIOTHERAPEUTICS SUZHOU, published 2026).
